# Source: publication doi:10.1101/2023.04.17.536592 (bioRxiv, 2023)
# B1: T. brucei histone H4 (natural protein)
# chain: not shown
# notes: also called Tb H4
# B2: T. brucei histone H2B (natural protein, Trypanosoma brucei brucei)
# chain: ATPKSTPAKTRKEAKKTRRQRKRTWNVYVSRSLRSINSQMSMTSRTMKIVNSFVNDLFERIAAEAATIVRVNRKRTLGARELQTAVRLVLPADLAKHAMAEGTKAVSHASS
# notes: also called Tb H2B
# What was measured:
# T. brucei histone H2B = molecular target: B2; experiment: cryo-EM structure; conditions: both partners purified
# T. brucei histone H2A = molecular target: T1, T. brucei histone H2A (Trypanosoma brucei brucei, UniProt Q57YA3 2-134); experiment: cryo-EM structure; conditions: both partners purified
# T1 construct: also called Tb H2A
# T1 sequence: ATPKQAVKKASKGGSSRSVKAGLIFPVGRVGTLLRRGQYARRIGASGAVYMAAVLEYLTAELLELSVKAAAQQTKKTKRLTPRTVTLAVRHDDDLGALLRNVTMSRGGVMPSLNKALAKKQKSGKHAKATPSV
Binder,binding result (T. brucei histone H2B),binding result (T. brucei histone H2A)
B1,binds,
B2,,binds
